Measurements published in US6271012.

Legend:
[1] = molecular target: succinyl-L-alanyl-L-alanyl-L-prolyl-L-phenylalanyl-p-nitroanilide (not provided)
[2] = molecular target: casein (Hammerstein, Merck)
[3] = molecular target: casein (Hammerstein, Merck); remark: listed apart in the source

| kcat/Km (Km in mM and kcat in 1/s) [1] [M⁻¹ s⁻¹] | turnover number (kcat) measured on casein [2] [s⁻¹] | Specific activity relative to PB92 protease (%), ADU method [3] [%] | Substance |
| --- | --- | --- | --- |
| 102000 | 90 | – | PB92 protease (serine protease of Bacillus nov. spec. PB92) (enzyme) |
| 9000 | – | 50 | PB92 protease M216-oxidized (enzyme) |
| – | – | 115 | PB92 protease mutant G116V, S126N, P127H, S128I (enzyme) |
| – | – | 69 | PB92 protease mutant G116V, S126Y, P127G, S128L (enzyme) |
| 8000 | – | 36 | PB92 protease mutant M117L, M216S (enzyme) |
| – | – | 44 | PB92 protease mutant M169I, M216S (enzyme) |
| 3000 | – | 37 | PB92 protease mutant M216Q (enzyme) |
| – | – | 85 | PB92 protease mutant N212S (enzyme) |
| 21000 | – | 48 | PB92 protease mutant S160C (enzyme) |
| 12000 | – | 73 | PB92 protease mutant S160D (enzyme) |
| 11000 | – | 47 | PB92 protease mutant S160K (enzyme) |
| – | – | 100 | PB92 protease mutant [A166D, M169I] (enzyme) |
| 13000 | – | 95 | PB92 protease mutant [G116V, S126G, P127Q, S128I] (enzyme) |
| 65000 | – | 81 | PB92 protease mutant [G116V, S126L, P127N, S128V] (enzyme) |
| 86000 | – | 43 | PB92 protease mutant [G116V, S126V, P127E, S128K] (enzyme) |
| 180000 | – | 115 | PB92 protease mutant [S126M, P127A, S128G] (enzyme) |

Continued, substance first:

| Substance | kcat/Km (Km in mM and kcat in 1/s) [1] [M⁻¹ s⁻¹] | turnover number (kcat) measured on casein [2] [s⁻¹] | Specific activity relative to PB92 protease (%), ADU method [3] [%] |
| --- | --- | --- | --- |
| PB92 protease mutant E134K (enzyme) | 49000 | – | 95 |
| PB92 protease mutant M117L, M216Q (enzyme) | 2000 | – | 27 |
| PB92 protease mutant M216C (enzyme) | 30000 | – | 36 |
| PB92 protease mutant M216S (enzyme) | 5000 | – | 40 |
| PB92 protease mutant N212D (enzyme) | 86000 | – | 100 |
| PB92 protease mutant [G116V, S126F, P127L, S128T] (enzyme) | 19000 | – | – |
| PB92 protease mutant [G116V, S126H, P127Y] (enzyme) | – | – | 73 |
| PB92 protease mutant [G116V, S126L, P127Q, S128A] (enzyme) | 57000 | – | 62 |
| PB92 protease mutant [G116V, S126R, P127S, S128P] (enzyme) | – | – | 81 |
| PB92 protease mutant [G116V, S126V, P127M] (enzyme) | 98000 | – | 69 |
| PB92 protease mutant [S160D, M216Q] (enzyme) | – | – | 12 |
| PB92 protease mutant [S160D, M216S] (enzyme) | – | – | 17 |
| PB92 protease mutant [S160G, N212D] (enzyme) | 18000 | – | 76 |
